Experiment [1] addresses Alkaline Phosphatase-tagged extracellular domains of Neogenin (Ec-Neogenin-AP). Kind of experiment: plate competition binding assay, His-tagged protein coated, AP-tagged protein detected with pNPP at 405 nm; sRGMa pre-incubated with Ec-Neogenin-AP.
Experiment [2] addresses Neogenin on murine brain-derived endothelial cells (b.end3) (mouse) (UniProt P97798). Kind of experiment: cell-based or functional assay.

Neogenin on murine brain-derived endothelial cells (b.end3) (mouse), sequence (P97798 37-1492): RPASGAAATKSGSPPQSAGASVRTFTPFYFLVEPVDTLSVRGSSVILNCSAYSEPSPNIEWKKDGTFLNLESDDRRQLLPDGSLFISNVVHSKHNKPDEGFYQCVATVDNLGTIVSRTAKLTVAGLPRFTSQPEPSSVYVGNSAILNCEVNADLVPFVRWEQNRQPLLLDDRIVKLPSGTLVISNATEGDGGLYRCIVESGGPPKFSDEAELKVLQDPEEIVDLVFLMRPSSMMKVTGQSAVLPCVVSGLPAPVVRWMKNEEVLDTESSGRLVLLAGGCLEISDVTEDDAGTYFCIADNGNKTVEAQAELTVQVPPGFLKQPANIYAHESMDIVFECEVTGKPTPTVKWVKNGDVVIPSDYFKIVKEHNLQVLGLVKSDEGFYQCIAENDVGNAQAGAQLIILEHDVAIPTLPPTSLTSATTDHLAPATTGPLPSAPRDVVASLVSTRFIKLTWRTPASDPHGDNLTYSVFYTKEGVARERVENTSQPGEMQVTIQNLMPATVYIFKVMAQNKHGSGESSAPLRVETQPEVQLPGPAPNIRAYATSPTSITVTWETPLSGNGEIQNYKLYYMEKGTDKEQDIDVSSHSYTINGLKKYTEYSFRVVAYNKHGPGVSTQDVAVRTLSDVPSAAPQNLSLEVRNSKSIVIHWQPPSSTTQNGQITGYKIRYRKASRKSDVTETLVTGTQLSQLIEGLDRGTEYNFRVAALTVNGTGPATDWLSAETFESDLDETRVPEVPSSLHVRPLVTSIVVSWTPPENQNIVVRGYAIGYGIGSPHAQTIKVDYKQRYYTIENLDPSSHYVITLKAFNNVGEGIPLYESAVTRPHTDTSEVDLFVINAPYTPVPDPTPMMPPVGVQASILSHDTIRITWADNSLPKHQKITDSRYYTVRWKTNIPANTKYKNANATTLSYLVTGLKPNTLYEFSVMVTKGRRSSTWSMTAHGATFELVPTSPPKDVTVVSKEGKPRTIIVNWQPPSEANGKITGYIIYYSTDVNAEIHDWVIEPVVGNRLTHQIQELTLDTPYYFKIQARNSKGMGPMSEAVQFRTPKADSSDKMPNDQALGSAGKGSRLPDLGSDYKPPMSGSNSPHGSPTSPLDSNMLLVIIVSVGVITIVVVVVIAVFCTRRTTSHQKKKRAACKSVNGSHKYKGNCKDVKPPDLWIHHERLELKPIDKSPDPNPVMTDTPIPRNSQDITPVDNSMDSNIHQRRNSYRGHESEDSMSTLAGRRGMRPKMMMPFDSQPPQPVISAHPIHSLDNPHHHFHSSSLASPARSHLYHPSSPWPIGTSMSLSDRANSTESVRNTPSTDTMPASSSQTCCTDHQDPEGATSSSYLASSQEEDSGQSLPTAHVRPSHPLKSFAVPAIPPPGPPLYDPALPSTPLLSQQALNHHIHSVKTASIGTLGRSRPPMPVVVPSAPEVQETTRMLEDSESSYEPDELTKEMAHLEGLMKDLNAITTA

Regarding “soluble RGMa (sRGMa), mouse, His tag replacing the GPI anchor (from UniProt Q6PCX7 170-427) (ligand)”, the fold reduction of binding intensity of RGMc to Neogenin against BSA control in experiment [1] turned out to be 3 fold. In addition, in experiment [2], the fold decrease in Claudin 5 levels in b.End3 cells (Western blot) worked out at 2 fold.

The record behind these values is patent US20200016237A1.
